Experimental findings from patent US20080044419A1, “Treatment of T Cell Mediated Diseases by Inhibition of Fgfr3” (Fibron Ltd., priority 2003, published 2008) are described below.

Positions count from the first letter of the chain named.

B1: PRO-001 (Fab, V domains shown)
VH: QVQLQQSGPGLVKPSQTLSLTCAISGDSVSSNSAAWNWIRQSPGRGLEWLGRTYYRSKWYNDYAVSVKSRITINPDTSKNQFSLQLNSVTPEDTAVYYCARSYYPDFDYWGQGTLVTVSS
VL: DIELTQPPSVSVAPGQTARISCSGDALGDKYASWYQQKPGQAPVLVIYDDSDRPSGIPERFSGSNSGNTATLTISGTQAEDEADYYCQSYDGPDLWVFGGGTKLTVLG
B2: PRO-002 (Fab, V domains shown)
VH: QVQLVQSGAEVKKPGASVKVSCKASGYTFTSYYMHWVRQAPGQGLEWMGWINPNSGGTNYAQKFQGRVTMTRDTSISTAYMELSSLRSEDTAVYYCARDFLGYEFDYWGQGTLVTVSS
VL: B1 VL with G92Y, P93S, D94A, L95D, W96Y
B3: PRO-026 (Fab, V domains shown)
VH: QVQLVQSGAEVKKPGASVKVSCKASGYTFTSYYMHWVRQAPGQGLEWMGWINPNSGGTNYAQKFQGRVTMTRDTSISTAYMELSSLRSEDTAVYYCARGYWYAYFTYINYGYFDNWGQGTLVTVSS
VL: DIALTQPASVSGSPGQSITISCTGTSSDVGGYNYVSWYQQHPGKAPKLMIYDVSNRPSGVSNRFSGSKSGNTASLTISGLQAEDEADYYCQSYDNNSDVVFGGGTKLTVLG
B4: PRO-029 (Fab, V domains shown)
VH: QVQLVQSGAEVKKPGASVKVSCKASGYTFTSYYMHWVRQAPGQGLEWMGWINPNSGGTNYAQKFQGRVTMTRDTSISTAYMELSSLRSEDTAVYYCARTWQYSYFYYLDGGYYFDIWGQGTLVTVSS
VL: DIVLTQSPATLSLSPGERATLSCRASQSVSSSYLAWYQQKPGQAPRLLIYGASSRATGVPARFSGSGSGTDFTLTISSLEPEDFATYYCQQTNNAPVTFGQGTKVEIKR
B5: PRO-026 Fab-dHLX (protein)
VH: B3 VH
VL: DIALTQPASVSGSPGQSITISCTGTSSDVGGYNYVSWYQQHPGKAPKLMIYDVSNRPSGVSNRFSGSKSGNTASLTISGLQAEDEADYYCQSYDNNSDVVFGGGTKLTVLGQ
B6: PRO-055 Fab-dHLX (protein)
VH: QVQLVQSGAEVKKPGASVKVSCKASGYTFTSYYMHWVRQAPGQGLEWMGWINPNSGGTNYAQKFQGRVTMTRDTSISTAYMELSSLRSEDTAVYYCARSMNSTMYWYLRRVLFDHWGQGTLVTVSS
VL: B5 VL with N95M, N96Y, S97N, D98Y, V99I
B7: PRO-012 Fab-dHLX (protein)
VH: QVQLKESGPALVKPTQTLTLTCTFSGFSLSTSGVGVGWIRQPPGKALEWLALIDWDDDKYYSTSLKTRLTISKDTSKNQVVLTMTNMDPVDTATYYCARYHSWYEMGYYGSTVGYMFDYWGQGTLVTVSS
VL: DIELTQPPSVSVAPGQTARISCSGDALGDKYASWYQQKPGQAPVLVIYDDSDRPSGIPERFSGSNSGNTATLTISGTQAEDEADYYCQSYDFDFAVFGGTKLTVLGQ
B8: PRO-024 Fab-dHLX (protein)
VH: QVQLVQSGAEVKKPGSSVKVSCKASGGTFSSYAISWVRQAPGQGLEWMGGIIPIFGTANYAQKFQGRVTITADESTSTAYMELSSLRSEDTAVYYCARVNHWTYTFDYWGQGTLVTVSS
VL: not shown
B9: PRO-029 Fab-dHLX (protein)
VH: B4 VH
VL: DIVLTQSPATLSLSPGERATLSCRASQSVSSSYLAWYQQKPGQAPRLLIYGASSRATGVPARFSGSGSGTDFTLTISSLEPEDFATYYCQQTNNAPVTFGQGTKVEIKRT
B10: PRO-001 Fab-dHLX (protein)
VH: B1 VH
VL: DIELTQPPSVSVAPGQTARISCSGDALGDKYASWYQQKPGQAPVLVIYDDSDRPSGIPERFSGSNSGNTATLTISGTQAEDEADYYCQSYDGPDLWVFGGGTKLTVLGQ
B11: PRO-002 Fab-dHLX (protein)
VH: B2 VH
VL: B10 VL with G92Y, P93S, D94A, L95D, W96Y
B12: PRO-021 Fab-dHLX (protein)
VH: QVQLVQSGAEVKKPGSSVKVSCKASGGTFSSYAISWVRQAPGQGLEWMGGIIPIFGTANYAQKFQGRTITADESTSTAYMELSSLRSEDTAVYYCARDNWFKPFSDVWGQGTLVTVSS
VL: not shown
B13: PRO-054 Fab-dHLX (protein)
VH: QVQLVQSGAEVKKPGASVKVSCKASGYTFTSYYMHWVRQAPGQGLEWMGWINPNSGGTNYAQKFQGRVTMTRDTSISTAYMELSSLRSEDTAVYYCARNMAYTNYQYVNMPHFDYWGQGTLVTVSS
VL: DIELTQPPSVSVAPGQTARISCSGDALGDKYASWYQQKPGQAPVLVIYDDSDRPSGIPERFSGSNSGNTATLTISGTQAEDEADYYCQSYDYFKLVFGGGTKLTVLGQ

One test has as its target fibroblast growth factor receptor 3 (FGFR3) (UniProt P22607). The test can be described thus: BIAcore.
In turn, B1 displayed a dissociation constant (Kd) of 1.5 nM.

The target is the same in the next test. Put plainly: FACS.
Molecule B2 had a Kd of 43 nM.

As for B3, the Kd was determined as 1.4 nM.

For B4, the Kd was less than 1 nM.

For the molecule B1, the Kd is 0.7 nM.

For the next test the target is unchanged. The test can be described thus: not stated (BIAcore presumably).
In turn, B1 showed a koff of 0.00071 s⁻¹.

The next test has as its target fibroblast growth factor receptor 3 (FGFR3), P22607. The test can be described thus: cell-based or functional assay.
In turn, B5 registered an IC50 FGFR3 (FGF9), FDCP-FGFR3 proliferation assay performed with FGF9 of 70 nM.

In turn, B6 showed an IC50 FGFR3 (FGF9), FDCP-FGFR3 proliferation assay performed with FGF9 of 34 nM.

In turn, B7 displayed an IC50 FGFR3 (FGF9), FDCP-FGFR3 proliferation assay performed with FGF9 of 58 nM.

On to B8, for which the IC50 FGFR3 (FGF9), FDCP-FGFR3 proliferation assay performed with FGF9 amounted to 70 nM.

Take B9: the IC50 FGFR3 (FGF9), FDCP-FGFR3 proliferation assay performed with FGF9 was determined as 20 nM.

B10 gave an IC50 FGFR3 (FGF9), FDCP-FGFR3 proliferation assay performed with FGF9 of 19 nM.

Turning to B11, the IC50 FGFR3 (FGF9), FDCP-FGFR3 proliferation assay performed with FGF9 turned out to be 360 nM.

As for B12, the IC50 FGFR3 (FGF9), FDCP-FGFR3 proliferation assay performed with FGF9 stood at 50 nM.

In turn, B13 displayed an IC50 FGFR3 (FGF9), FDCP-FGFR3 proliferation assay performed with FGF9 of 45 nM.
